Test results from article PMC2887963 (Nucleic Acids Research, 2010).

T1: (His)6-RcsB (Escherichia coli, UniProt P0DMC7 1-216)
T1 sequence: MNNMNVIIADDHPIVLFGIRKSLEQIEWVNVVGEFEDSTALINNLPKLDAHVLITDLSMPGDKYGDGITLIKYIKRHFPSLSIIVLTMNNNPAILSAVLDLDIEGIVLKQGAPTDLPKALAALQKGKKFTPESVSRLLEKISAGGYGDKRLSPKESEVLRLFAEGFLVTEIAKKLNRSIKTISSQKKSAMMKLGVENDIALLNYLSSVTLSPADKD

T2: MBP-RcsB (Escherichia coli (MG1655 strain), UniProt P0DMC7 1-216)
T2 sequence: T1 sequence

T3: (His)6-RcsB (Escherichia coli, UniProt P0DMC7 1-216)
T3 sequence: T1 sequence

B1: MBP-GadE (natural protein)
chain: MIFLMTKDSFLLQGFWQLKDNHEMIKINSLSEIKKVGNKPFKVIIDTYHNHILDEEAIKFLEKLDAERIIVLAPYHISKLKAKAPIYFVSRKESIKNLLEITYGKHLPHKNSQLCFSHNQFKIMQLILKNKNESNITSTLNISQQTLKIQKFNIMYKLKLRRMSDIVTLGITSYF
B2: (His)6-GadE (natural protein)
chain: B1 chain
B3: gadA promoter -101 to +24 (dsDNA)
DNA 1: GTTTATATTATAAAAAGTCGTTTTTCTGCTTAGGATTTTGTTATTTAAATTAAGCCTGTAATGCCTTGCTTCCATTGCGGATAAATCCTACTTTTTTATTGCCTTCAAATAAATTTAAGGAGTTC
DNA 2: GAACTCCTTAAATTTATTTGAAGGCAATAAAAAAGTAGGATTTATCCGCAATGGAAGCAAGGCATTACAGGCTTAATTTAAATAACAAAATCCTAAGCAGAAAAACGACTTTTTATAATATAAAC

Assays:
[1] = molecular target: T1, (His)6-RcsB; test: native gel or EMSA
[2] = molecular target: T2, MBP-RcsB; test: native gel or EMSA
[3] = molecular target: the molecule itself
[4] = molecular target: T3, (His)6-RcsB; test: EMSA

Binder | binding result [1] | binding result [2] | stoichiometry N [3] | binding result [4]
B1 | binds | binds | 2 | 
B2 | binds | binds |  | 
B3 |  |  |  | binds
